{
  "source": "paper PMC4500839",
  "about": "(Nature communications, 2015)",
  "binders": {"B1": {"name": "PGT128 (antibody, V domains shown)", "VH": "QPQLQESGPTLVEASETLSLTCAVSGDSTAACNSFWGWVRQPPGKGLEWVGSLSHCASYWNRGWTYHNPSLKSRLTLALDTPKNLVFLKLNSVTAADTATYYCARFGGEVLRYTDWPKPAWVDLWGRGTLVTVSS", "VL": "QSALTQPPSASGSPGQSITISCTGTSNNFVSWYQQHAGKAPKLVIYDVNKRPSGVPDRFSGSKSGNTASLTVSGLQTDDEAVYYCGSLVGNWDVIFGGGTKLTVL"}},
  "target": "gp120BaL (HIV-1 group M subtype B, isolate BaL …, UniProt Q6TAP7, strain)",
  "assay": "ELISA",
  "data": [
    {"binder": "B1", "values": [
      {"measurement": "binding result", "result": "binds"}
    ]}
  ]
}
